From the supplement of paper PMC12042874 come the findings set out here.

This data set can be described thus: amyloid nucleation score (Sup35N fusion, yeast selection) (log enrichment); library NNK1; higher = more nucleation; inactive = no reads after selection. In short, it runs like this:
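Nucleation score is defined as the DiMSum log enrichment of output over input reads, with centring on the mode score of non-aggregating sequences. A minimum of 100 input reads was required for each sequence. Reads came from Illumina sequencing of plasmid inserts from psi-negative yeast expressing Sup35N fused to peptides of 20 random codons, induced with 100 μM copper sulfate for 24 hours and grown 7 days at 30°C on medium lacking adenine and uracil.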

± gives the uncertainty stated by the source.

MWYLMRTLTLIRFFVSPVGS had an amyloid nucleation score of 0.154 ± 0.31. CSLLLMYIKNELMIRSFGRF: the amyloid nucleation score entry is “inactive”.

Turning to NIRKEGFFRFSPSTADTTCR, the amyloid nucleation score worked out at 0.618 ± 0.71. In the case of PITMQSMSFFRRVLLVFFLY, the amyloid nucleation score stood at 0.813 ± 0.5.

As to LRRPVRSTLNGMRMSQHTRR, the amyloid nucleation score was -0.164 ± 0.66.

Regarding PLAAYCSVDYGQKIQIATVP, the amyloid nucleation score is -0.541 ± 0.42. The result for SSRLKL reads 1 ± 0.25; that for GIQLTVFGLLLCFGTGLKVF, 0.078 ± 0.6; that for LCSMWEGRGADEMLAICQGA, 0.152 ± 0.59. The result for RFLSMWSHCQLMF reads “inactive”; that for ACYNGHTSRWLR, 1.09 ± 0.85; that for RWSLGGICVYVGLNEFVLMI, 2.56 ± 0.22.

For EAVRWRGRNVRNLFWDN, the amyloid nucleation score came to 0.03 ± 0.35.

MVFLGCSGLVCERCAGWLAR came in with an amyloid nucleation score of 5.58 ± 0.11.

As to VCWYWVGILRMMICACTSPS, the amyloid nucleation score was 0.362 ± 0.43. Next, ASAWGLGYEFPWSRSYSAKT: -0.209 ± 0.9; MRFVIQVLYTGGTKKSSHLM: 1.16 ± 0.79; YVFVWMRYTSFWVMNTFYSS: 0.193 ± 0.46. The substance VDEETMCSFLSLGKVY registered an amyloid nucleation score of 0.474 ± 0.69. The result for FNYHRRPLNYISNRQYGGLS reads “inactive”; that for THFTTYYYWSQWGLWLSFCQ, 0.596 ± 0.31; that for ICNFVSLFNWK, -0.025 ± 0.79. The result for DAMHCCKTDYYIIGISGPSD reads 0.732 ± 0.68; that for VSKSFVSQARLFYIQGDHCL, 1.42 ± 0.73. Next, VHNHISP: -0.836 ± 0.37; AFAVSSYWVRGIHRESYGSV: 0.591 ± 0.69.

GFVSAKLIPCAVLQKGLLPV came in with an amyloid nucleation score of 0.313 ± 0.51. Next, GWENSLYNFFCLW: 0.342 ± 0.35. Next, CTMLCFQALRLLGRRILFQA: -0.361 ± 0.48; TTRHSNQSIM: 0.344 ± 0.4; MRITILYYLGKQNRSFWWFC: 0.108 ± 0.35. The result for WESDIFFMIGLVQRRQLTGP reads 2.91 ± 0.17; that for FRWRSSGGLVCFLDAVVVSV, -0.249 ± 0.38; that for CGHMR, 0.327 ± 0.33. Consider ISLAVWGFSILLRIADCSMI, for which the amyloid nucleation score is 0.123 ± 1.2.

As for MMFSRILCNGDPQGSARWLS, the amyloid nucleation score entry is “inactive”. Next, TVFWRYCSRVLNDKFGQFWV: 0.043 ± 0.35; CNLSTCSFHFHFLT: 4.53 ± 0.11.

In turn, TGLELGVPKIRCMSFHVLPW came in with an amyloid nucleation score of -0.394 ± 0.92.

EMFCC showed an amyloid nucleation score of 0.554 ± 0.59. As for FRVMILLLTEMWSMESNRDL, the amyloid nucleation score came to 3.4 ± 0.14.

In turn, TNGNGFIRRFTRAYFFT displayed an amyloid nucleation score of -0.338 ± 0.5.

The substance LGLRGKKLRIINAPYTTGRN displayed an amyloid nucleation score of -0.64 ± 0.98. Next, LWYKIGFLIWSRTGTLYQGI: 0.273 ± 0.3; ITVRPLPYRPIDVHRYFAQH: 0.77 ± 0.34.

In the case of MLVFYCNRN, the amyloid nucleation score came to 2.88 ± 0.22.

As to RLFCGSWDNFREGE, the amyloid nucleation score was -0.063 ± 0.58. The substance VIESG gave an amyloid nucleation score of 1.34 ± 0.93. The result for DRVANNLMD reads -0.344 ± 0.26. The result for YSNLIDGS reads 7.378 ± 0.047.

With PCINRFHGIGFHCRLWTVYV, the amyloid nucleation score is 0.816 ± 0.98. Next, WYHFVSGAVPHGSNEPKEFN: -1 ± 0.9; RSLFPFSSLDMGHRRVGGKV: 0.384 ± 0.52. Substance KYFGFSVHSLLCYNRSLFLS gave an amyloid nucleation score of -0.055 ± 0.35.

In turn, YYGVWVDREHWL returned an amyloid nucleation score of 0.628 ± 0.48. The result for FLVQVAWFLPAGGYGDNFCC reads 0.049 ± 0.39.

As for VMLVVMGLFELFWLSNVV, the amyloid nucleation score entry is “inactive”.
